Positions count from the first letter of the chain named. Each block holds one binder with its values, some of them ahead of it.
Tests used:
[1] = biological target: T1, biotinylated LRP6E3E4 (UniProt O75581 631-1246, limits assumed, biotinylated (site not stated)); assay: BLI (Octet Red 96), biotinylated LRP6E3E4 on streptavidin sensor, 1:1 fit; SEC fraction D3 (second block)
T1 construct: domain: E3E4; also called Lrp6E3E4 domain; Lrp6 receptor
T1 sequence (looked up): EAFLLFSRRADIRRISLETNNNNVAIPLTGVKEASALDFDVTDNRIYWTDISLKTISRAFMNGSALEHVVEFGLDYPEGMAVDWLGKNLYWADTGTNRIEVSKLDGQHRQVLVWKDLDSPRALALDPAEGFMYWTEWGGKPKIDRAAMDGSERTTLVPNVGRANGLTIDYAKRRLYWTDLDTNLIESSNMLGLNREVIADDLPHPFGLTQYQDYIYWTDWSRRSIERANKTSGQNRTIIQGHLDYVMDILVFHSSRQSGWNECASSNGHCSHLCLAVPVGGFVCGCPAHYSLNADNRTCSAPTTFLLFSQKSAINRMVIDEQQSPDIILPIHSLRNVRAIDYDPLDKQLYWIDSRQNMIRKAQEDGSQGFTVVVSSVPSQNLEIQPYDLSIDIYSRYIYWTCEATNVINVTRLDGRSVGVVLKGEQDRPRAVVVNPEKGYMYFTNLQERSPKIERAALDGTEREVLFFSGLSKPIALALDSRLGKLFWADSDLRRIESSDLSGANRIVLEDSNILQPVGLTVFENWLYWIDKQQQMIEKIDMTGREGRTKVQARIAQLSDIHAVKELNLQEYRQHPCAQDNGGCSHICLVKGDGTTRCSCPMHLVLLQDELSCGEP
Method: (§1) Proteins were purified using His-Complete resin (Roche, USA) following standard procedures. Expression levels and homogeneity of VHH26 and its humanized variants were analyzed by SDS-PAGE and SEC (size-exclusion chromatography). […] Biotinylated LRP6E3E4 diluted to 50 nM in the running buffer (PBS, 0.05% Tween-20, 0.5% BSA, pH 7.2) were captured to the SA biosensor followed by dipping into wells containing the indicated VHH26 proteins at different concentrations in running buffer or into a well with only running buffer as a reference channel. KD for each binder was calculated by Octet System software, based on fitting to a 1:1 binding model. Kinetics values (Kon, Koff, KD) from each experiment was calculated from seven technical replicates of different concentrations of the molecule tested with Octet Data Analysis 9.0 (PALL ForteBio, Fremont, CA).
(§2) Central fractions of each of these peaks were examined by Octect-BLI for their ability interact with Lrp6. Kinetics parameters such as kon, koff, and KD for interaction between VHH26 constructs and Lrp6E3E4 domain are listed in Table 2.

[2] = biological target: T1, biotinylated LRP6E3E4; assay: BLI (Octet Red 96), biotinylated LRP6E3E4 on streptavidin sensor, 1:1 fit; SEC fraction D3 (first block)
Method: as §1, §2

[3] = biological target: T1, biotinylated LRP6E3E4; assay: BLI (Octet Red 96), biotinylated LRP6E3E4 on streptavidin sensor, 1:1 fit; SEC fraction C1
Method: as §1, §2

[4] = biological target: T1, biotinylated LRP6E3E4; assay: BLI (Octet Red 96), biotinylated LRP6E3E4 on streptavidin sensor, 1:1 fit; SEC fraction C3
Method: as §1, §2

[5] = biological target: T1, biotinylated LRP6E3E4; assay: BLI (Octet Red 96), biotinylated LRP6E3E4 on streptavidin sensor, 1:1 fit; SEC fraction G1
Method: as §1, §2

[6] = biological target: T1, biotinylated LRP6E3E4; assay: BLI (Octet Red 96), biotinylated LRP6E3E4 on streptavidin sensor, 1:1 fit; SEC fraction G3
Method: as §1, §2

[7] = biological target: T2, Fzd5 CRD (biotinylated) (UniProt Q13467 27-155, limits assumed, biotinylated (site not stated)); assay: BLI (Octet Red 96), biotinylated Fzd5 CRD captured on SA biosensor, R2M13 as analyte at several concentrations, 1:1 fit; the legend paragraph 32 says IgG, the methods paragraph 311 say R2M13 Fab
T2 construct: domain: CRD
T2 sequence (looked up): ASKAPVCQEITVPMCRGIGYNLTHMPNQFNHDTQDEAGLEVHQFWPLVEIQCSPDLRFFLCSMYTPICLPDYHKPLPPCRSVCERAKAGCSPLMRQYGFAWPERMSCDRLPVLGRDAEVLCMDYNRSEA
Method: (§3) Biotinylated CRDs of Fzds diluted to 25 nM in the running buffer (PBS, 0.05% Tween-20, 0.5% BSA, pH 7.2) were captured to the SA biosensor followed by dipping into wells containing the R2M13 Fab protein at different concentrations in running buffer or into a well with only running buffer as a reference channel. KD for each binder was calculated by Octet System software, based on fitting to a 1:1 binding model. Binding specificities of R2M13 IgG to 10 Fzds were also examined by the BLI assay. Biotinylated Fzd CRDs (H. Chen, Lu, Lee, & Li, 2020) diluted to 50 nM in the running buffer were captured to the SA biosensor followed by dipping into wells containing R2M13 IgG at 200 nM in running buffer.

[8] = biological target: T3, Fzd8 CRD (biotinylated) (UniProt Q9H461 28-155, limits assumed, biotinylated (site not stated)); assay: BLI (Octet Red 96), biotinylated Fzd8 CRD captured on SA biosensor, R2M13 as analyte at several concentrations, 1:1 fit; the legend paragraph 33 says IgG, the methods paragraph 311 say R2M13 Fab
T3 construct: domain: CRD
T3 sequence (looked up): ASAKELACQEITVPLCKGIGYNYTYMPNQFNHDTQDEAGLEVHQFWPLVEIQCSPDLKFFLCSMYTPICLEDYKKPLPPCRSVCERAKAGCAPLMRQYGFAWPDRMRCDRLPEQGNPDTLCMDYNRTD
Method: as §3

[9] = biological target: LRP5 (human (Huh-7 human liver reporter …, UniProt O75197)); assay: cell-based or functional assay
[10] = biological target: LRP6 (human (Huh-7 human liver reporter …, UniProt O75581)); assay: cell-based or functional assay
Chain of LRP6 (human (O75581 20-1613 limits assumed): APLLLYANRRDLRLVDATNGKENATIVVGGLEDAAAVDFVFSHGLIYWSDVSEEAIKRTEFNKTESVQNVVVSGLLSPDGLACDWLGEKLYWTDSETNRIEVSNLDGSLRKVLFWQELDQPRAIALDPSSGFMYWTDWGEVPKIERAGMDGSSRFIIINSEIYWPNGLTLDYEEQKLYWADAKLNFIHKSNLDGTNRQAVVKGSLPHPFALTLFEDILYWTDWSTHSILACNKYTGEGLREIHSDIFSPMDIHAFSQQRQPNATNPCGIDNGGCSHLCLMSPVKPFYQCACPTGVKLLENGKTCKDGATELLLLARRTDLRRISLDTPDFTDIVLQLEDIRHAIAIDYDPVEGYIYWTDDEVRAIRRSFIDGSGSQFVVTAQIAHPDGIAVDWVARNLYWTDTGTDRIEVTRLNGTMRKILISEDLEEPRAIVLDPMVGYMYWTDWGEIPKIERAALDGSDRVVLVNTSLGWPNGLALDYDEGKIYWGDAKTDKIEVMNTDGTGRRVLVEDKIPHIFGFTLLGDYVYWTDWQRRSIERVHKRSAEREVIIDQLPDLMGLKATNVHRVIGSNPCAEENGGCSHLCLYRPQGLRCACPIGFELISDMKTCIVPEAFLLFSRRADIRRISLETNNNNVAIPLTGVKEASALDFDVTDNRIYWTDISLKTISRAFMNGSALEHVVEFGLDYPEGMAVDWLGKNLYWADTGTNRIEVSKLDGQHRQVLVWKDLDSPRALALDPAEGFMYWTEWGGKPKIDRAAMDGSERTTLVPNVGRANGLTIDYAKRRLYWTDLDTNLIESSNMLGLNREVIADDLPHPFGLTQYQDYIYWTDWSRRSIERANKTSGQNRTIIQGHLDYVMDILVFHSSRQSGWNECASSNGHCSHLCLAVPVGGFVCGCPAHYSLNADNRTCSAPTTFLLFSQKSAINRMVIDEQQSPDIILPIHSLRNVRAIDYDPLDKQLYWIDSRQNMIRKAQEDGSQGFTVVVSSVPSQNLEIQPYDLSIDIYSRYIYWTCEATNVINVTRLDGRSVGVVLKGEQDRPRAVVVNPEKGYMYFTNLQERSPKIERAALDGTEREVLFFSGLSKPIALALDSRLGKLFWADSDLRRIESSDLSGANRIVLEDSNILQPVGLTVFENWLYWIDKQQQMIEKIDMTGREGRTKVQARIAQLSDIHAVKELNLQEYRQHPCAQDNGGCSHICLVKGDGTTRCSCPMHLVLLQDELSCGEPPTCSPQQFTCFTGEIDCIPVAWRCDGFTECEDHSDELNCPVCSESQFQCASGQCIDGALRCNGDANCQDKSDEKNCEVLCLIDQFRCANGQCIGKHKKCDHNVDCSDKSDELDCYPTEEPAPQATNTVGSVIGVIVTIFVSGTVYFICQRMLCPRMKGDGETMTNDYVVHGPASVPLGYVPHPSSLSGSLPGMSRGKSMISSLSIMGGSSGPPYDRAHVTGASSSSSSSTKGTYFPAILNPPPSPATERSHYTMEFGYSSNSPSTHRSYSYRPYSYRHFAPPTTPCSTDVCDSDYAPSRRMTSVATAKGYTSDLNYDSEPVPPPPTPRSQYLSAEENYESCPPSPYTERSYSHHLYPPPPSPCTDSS

Chain of LRP5 (human (O75197 32-1615 limits assumed): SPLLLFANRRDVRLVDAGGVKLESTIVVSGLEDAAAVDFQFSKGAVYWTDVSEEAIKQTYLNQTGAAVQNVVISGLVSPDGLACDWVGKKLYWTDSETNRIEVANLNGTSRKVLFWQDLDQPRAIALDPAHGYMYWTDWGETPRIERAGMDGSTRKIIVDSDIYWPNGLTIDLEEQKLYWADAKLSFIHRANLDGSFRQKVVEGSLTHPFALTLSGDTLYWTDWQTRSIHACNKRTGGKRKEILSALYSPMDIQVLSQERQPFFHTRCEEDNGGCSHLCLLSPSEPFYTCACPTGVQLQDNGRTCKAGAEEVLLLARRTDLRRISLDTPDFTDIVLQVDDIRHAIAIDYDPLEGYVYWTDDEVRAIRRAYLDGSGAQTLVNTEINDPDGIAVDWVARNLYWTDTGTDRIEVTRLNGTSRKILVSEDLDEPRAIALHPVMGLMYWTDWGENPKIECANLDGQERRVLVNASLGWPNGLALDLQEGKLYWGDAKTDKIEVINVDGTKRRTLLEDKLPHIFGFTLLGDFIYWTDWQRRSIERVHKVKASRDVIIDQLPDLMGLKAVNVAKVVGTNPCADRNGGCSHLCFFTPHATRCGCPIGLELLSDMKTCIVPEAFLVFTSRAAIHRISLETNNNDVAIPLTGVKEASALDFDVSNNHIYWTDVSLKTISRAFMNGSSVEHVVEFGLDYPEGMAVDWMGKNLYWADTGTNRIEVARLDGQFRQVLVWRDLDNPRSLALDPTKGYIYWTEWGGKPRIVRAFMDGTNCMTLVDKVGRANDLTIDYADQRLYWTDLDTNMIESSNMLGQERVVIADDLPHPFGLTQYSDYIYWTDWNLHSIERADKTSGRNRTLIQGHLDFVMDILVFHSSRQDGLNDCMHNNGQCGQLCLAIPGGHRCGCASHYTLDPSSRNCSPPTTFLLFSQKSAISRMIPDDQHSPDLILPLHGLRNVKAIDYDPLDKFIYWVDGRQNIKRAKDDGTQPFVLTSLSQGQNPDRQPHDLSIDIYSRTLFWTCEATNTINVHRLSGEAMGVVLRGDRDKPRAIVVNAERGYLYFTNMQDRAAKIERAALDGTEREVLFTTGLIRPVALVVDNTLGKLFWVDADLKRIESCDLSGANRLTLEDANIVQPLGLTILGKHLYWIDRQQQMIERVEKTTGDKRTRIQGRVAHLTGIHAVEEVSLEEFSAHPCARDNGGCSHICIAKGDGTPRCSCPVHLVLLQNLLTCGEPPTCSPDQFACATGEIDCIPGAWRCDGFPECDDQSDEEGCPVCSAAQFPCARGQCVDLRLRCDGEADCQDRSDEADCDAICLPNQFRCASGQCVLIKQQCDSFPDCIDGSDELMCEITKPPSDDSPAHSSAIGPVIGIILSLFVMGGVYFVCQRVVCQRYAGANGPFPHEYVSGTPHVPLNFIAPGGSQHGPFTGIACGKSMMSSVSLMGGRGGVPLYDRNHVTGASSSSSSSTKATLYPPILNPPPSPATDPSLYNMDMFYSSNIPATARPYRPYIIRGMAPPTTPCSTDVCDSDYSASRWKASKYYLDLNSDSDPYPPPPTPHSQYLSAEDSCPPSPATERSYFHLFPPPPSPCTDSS

B1: VHH26 (parental) (VHH)
VHH: DVQLVESGGGLVQAGGSLRLACAGSGRIFAIYDIAWYRHPPGNQRELVAMIRPVVTEIDYADSVKGRFTISRNNAMKTVYLQMNNLKPEDTAVYYCNAKRPWGSRDEYWGQGTQVTVSS
notes: Expressed in Expi293 cells with a C-terminal hexa-histidine tag; also called VHH26_His; parental VHH26
Kd [1]: 22 nM | Kd [2]: 17 nM

B2: VHH26-H3 (VHH)
VHH: EVQLVESGGGLVQPGGSLRLSCAGSGRIFAIYDIAWYRQAPGKGREWVAMIRPVVTEIDYADSVKGRFTISRDNSKNTVYLQMNSLRAEDTAVYYCNAKRPWGSRDEYWGQGTTVTVSS
notes: Expressed in Expi293 cells with a C-terminal hexa-histidine tag; two SEC peaks were tested separately
Kd [3]: 3200 nM | Kd [4]: 422 nM

B3: VHH26-H1 (VHH)
VHH: B2 VHH with V5L, G24A, Y37V, R45L, A49S, V79L, N97A, A98K
notes: as for B2
Kd [4]: 281 nM

B5: VHH26-H2 (VHH)
VHH: B2 VHH with R45L
notes: as for B2
Kd [5]: 441 nM | Kd [6]: 280 nM

B8: R2M13 IgG (the Fzd5,8 binder IgG of R2M13-26) (antibody, V domains shown)
VH: EVQLLQSGAEVKKPGSSVKVSCKASGGTFTYRYLHWVRQAPGQGLEWMGGIIPIFGTGNYAQKFQGRVTITADESTSTAYMELSSLRSEDTAVYYCASSMVRVPYYYGMDVWGQGTLVTVSS
VL: not shown
notes: also called R2M13 antibody
Kd [7]: 57.5 nM | Kd [8]: 98.5 nM

B9: VHH03, Parental LALAPG (bispecific antibody)
heavy chain (R2M13 VH-IgG1 LALAPG): EVQLLQSGAEVKKPGSSVKVSCKASGGTFTYRYLHWVRQAPGQGLEWMGGIIPIFGTGNYAQKFQGRVTITADESTSTAYMELSSLRSEDTAVYYCASSMVRVPYYYGMDVWGQGTLVTVSSASTKGPSVFPLAPSSKSTSGGTAALGCLVKDYFPEPVTVSWNSGALTSGVHTFPAVLQSSGLYSLSSVVTVPSSSLGTQTYICNVNHKPSNTKVDKKVEPKSCDKTHTCPPCPAPEAAGGPSVFLFPPKPKDTLMISRTPEVTCVVVDVSHEDPEVKFNWYVDGVEVHNAKTKPREEQYNSTYRVVSVLTVLHQDWLNGKEYKCKVSNKALGAPIEKTISKAKGQPREPQVYTLPPSREEMTKNQVSLTCLVKGFYPSDIAVEWESNGQPENNYKTTPPVLDSDGSFFLYSKLTVDKSRWQQGNVFSCSVMHEALHNHYTQKSLSLSPGK
light chain (VHH03-linker-R2M13 light chain): not shown
EC50, Super TOPFlash (STF) luciferase reporter in Huh-7 STF cells; row LRP5 / VHH03, column Parental LALAPG EC50 [9]: 0.11 nM

B10: R2M13-26 humanized LALAPG (R2M13-h26) (bispecific antibody)
heavy: B9 heavy chain (R2M13 VH-IgG1 LALAPG)
light: not shown
EC50, Super TOPFlash (STF) luciferase reporter in Huh-7 STF cells; row LRP6 / VHH26, column Humanized LALAPG EC50 [10]: 0.63 nM

B12: VHH26, Parental LALAPG (bispecific antibody)
heavy chain (R2M13 VH-IgG1 LALAPG): B9 heavy chain (R2M13 VH-IgG1 LALAPG)
light chain (VHH26-linker-R2M13 light chain): not shown
EC50, Super TOPFlash (STF) luciferase reporter in Huh-7 STF cells; row LRP6 / VHH26, column Parental LALAPG EC50 [10]: 1.1 nM

B14: VHH03, Humanized LALAPG (bispecific antibody)
heavy chain (R2M13 VH-IgG1 LALAPG): B9 heavy chain (R2M13 VH-IgG1 LALAPG)
light chain (humanized VHH03-linker-R2M13 light chain): not shown
EC50, Super TOPFlash (STF) luciferase reporter in Huh-7 STF cells; row LRP5 / VHH03, column Humanized LALAPG EC50 [9]: 1.8 nM

Next, values leading:

Kd [5]: 662 nM | Kd [6]: 192 nM
B4: VHH26-H4 (VHH)
VHH: B2 VHH with W47L
notes: as for B2

Kd [3]: 41 nM | Kd [4]: 109 nM
B6: VHH26-H5 (VHH)
VHH: B2 VHH with N77K
notes: as for B2

Kd [5]: 687 nM | Kd [6]: 486 nM
B7: VHH26-H6 (VHH)
VHH: B2 VHH with W47L, N77K
notes: as for B2

EC50, Super TOPFlash (STF) luciferase reporter in Huh-7 STF cells; row LRP5&6 / VHH36, column Humanized LALAPG EC50 (nM); one value given for both LRP5 and LRP6 [9]: 1.2 nM | EC50, Super TOPFlash (STF) luciferase reporter in Huh-7 STF cells; row LRP5&6 / VHH36, column Humanized LALAPG EC50 (nM); one value given for both LRP5 and LRP6 [10]: 1.2 nM
B11: VHH36, Humanized LALAPG (bispecific antibody, human IgG1, kappa, L234A L235A)
heavy chain (R2M13 VH-IgG1 LALAPG): B9 heavy chain (R2M13 VH-IgG1 LALAPG)
light chain (humanized VHH36-linker-R2M13 light chain): not shown

EC50, Super TOPFlash (STF) luciferase reporter in Huh-7 STF cells; row LRP5&6 / VHH36, column Parental LALAPG EC50 (nM); one value given for both LRP5 and LRP6 [9]: 0.06 nM | EC50, Super TOPFlash (STF) luciferase reporter in Huh-7 STF cells; row LRP5&6 / VHH36, column Parental LALAPG EC50 (nM); one value given for both LRP5 and LRP6 [10]: 0.06 nM
B13: VHH36, Parental LALAPG (bispecific antibody, human IgG1, kappa, L234A L235A)
heavy chain (R2M13 VH-IgG1 LALAPG): B9 heavy chain (R2M13 VH-IgG1 LALAPG)
light chain (VHH36-linker-R2M13 light chain): not shown

From patent US20240150473A1 (SURROZEN OPERATING, published 2024)
